Test results reported in the supplement of paper PMC10567573.

B1: CDC25B (parent)
chain: ELKTFRLKTRSWAGERSRRELCSR

Variants of: B1
Assay: protein stability index of a GFP-peptide fusion (GPS, HEK-293T) (PSI 1-6); higher = more stable
Details: c terminus: a fixed tail appended
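Also: lentivirally expressed fusions sorted by FACS into six bins by GFP to DsRed ratio, PSI derived from sequencing read proportions per bin multiplied by bin number.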

Protein stability index: each site, then its substitutions
C22: E 3.65; Q 3.26; R 4.04; F 3.01; S 3.25; D 3.27; I 3.33; T 3.48; P 3.01; G 4.06; W 2.89; N 4.04; Y 2.6; K 3.57; A 3.36; L 2.79; V 3.54; H 3.42; M 2.96
T9: V 2.6; C 3.58; S 4.09; W 1.54; Y 3.16; I 1.99; A 3.66; R 4.65; G 4; E 3.69; K 3.84; H 3.29; D 3.35; M 2.3; F 2.18; Q 3.13; L 2.09; P 3.14; N 3.66
L7: M 3.81; T 4.08; H 3.6; V 3.33; S 3.91; E 4.07; R 4.57; D 3.86; I 3.25; Y 3.29; W 2.99; G 4.12; N 3.57; P 3.99; Q 3.75; K 4.68
R18: F 2.62; Y 2.58; A 3.85; K 3.36; N 3.18; M 3.36; E 3.52; P 3.64; V 3.6; G 2.95; T 3.38; C 2.23; I 3.04; S 3.85; H 3.33; D 3.4; W 2.84; L 3.23; Q 4.01
S17: E 4.03; C 2.69; F 2.24; M 2.52; L 2.87; K 2.77; P 3.35; R 2.63; Y 3.27; Q 3.35; D 3.46; V 2.36; N 2.93; W 2.16; H 3.21; A 3.4; T 3.33; I 2.32; G 2.7
L21: C 3.66; E 3.6; R 3.37; W 2.55; M 3.33; H 3.31; A 3.91; I 2.81; F 3.12; K 3.76; P 3.99; N 3.35; V 3.71; D 3.98; G 3.75; Q 3.15; T 3.84; Y 3.61; S 3.9
E20: S 2.92; P 3.08; T 2.88; D 2.98; C 2.72; K 3.47; Y 2.69; N 3.42; H 3.52; A 3.25; F 2.52; R 2.78; W 2.57; G 2.65; L 2.42; V 2.9; Q 3.53; I 2.66; M 3.25
R16: I 2.53; Y 3.61; V 1.93; M 2.97; H 3.46; W 2.55; E 3.64; K 2.81; D 3.83; C 2.97; P 3.67; F 2.6; L 2.91; N 3.34; Q 3.62; A 3.64; T 3.87; G 3.74; S 3.9
R19: H 3.13; A 4.2; V 2.74; F 2.49; W 2.02; M 3; C 2.25; T 2.57; D 2.88; G 3.46; P 2.98; Q 3.45; E 3.66; Y 3.51; S 3.28; I 2.57; N 3.38; L 3.2; K 3.26
S11: V 2.11; Q 2.58; T 3.1; P 2.59; I 2.71; H 1.95; K 2.64; E 3.11; N 3.2; F 2.58; L 2.61; M 2.42; R 2.4; G 2.94; C 2.63; W 2.57; A 2.68; D 2.95
R10: N 3.13; A 3.15; C 2.94; S 3.5; T 2.37; D 3.62; F 2.54; W 2.41; P 3.13; G 2.44; M 2.92; E 2.66; L 3.38; Q 3.1; V 2.45; Y 3.19; H 3.04; I 2.8; K 3.66
R24: P 2.82; M 2.34; N 3.38; K 3.38; Q 3.23; F 1.85; I 2.86; D 2.91; A 2.72; L 3; C 2.9; E 3.39; H 3.3; G 2.59; S 3.28
S23: I 2.95; A 3.02; Y 3.83; D 4.21; R 2.87; L 3.35; E 3.53; V 2.25; H 3.13; C 3.05; P 3.26; M 3.26; W 2.69; Q 3.39; T 3.89; N 3.8; G 3.44; F 3.03; K 3.62
W12: H 3.64; N 3.45; K 3.94; L 3.41; G 3.54; I 3.3; A 3.16; M 2.43; E 4.2; P 3.55; D 4.12; S 3.54; Q 3.49; V 3.45; C 2.87; Y 3.66; R 4.08; F 3.34; T 3.38
A13: V 2.44; S 2.85; D 3.98; R 3.49; M 2.92; F 1.88; T 3.1; Y 2.22; E 3.23; I 2.22; K 3.31; W 2.2; Q 3.01; L 2.62; P 3.84; N 3.81; H 3.81; C 2.94; G 3.41
K8: Q 3.34; I 1.92; Y 2.71; D 3.41; M 2.8; S 3.55; L 3.2; W 2.1; H 3.07; P 2.77; E 3.2; T 3.65; G 2.4; R 5.09; F 2.28; A 2.88; C 2.73; V 2.68; N 2.99
E15: L 2.78; W 2.4; Q 3.06; D 3.36; G 2.68; I 2.75; C 2.44; H 3.02; P 3.2; F 2.58; A 3.04; M 2.67; Y 2.46; V 2.51; T 2.98; N 2.66; S 2.96; R 3.06; K 3.3
G14: A 2.42; C 2.5; Q 2.58; P 2.25; Y 2.05; W 3.23; E 3.16; H 2.65; N 2.48; D 3.62; S 2.39; M 2.66; F 3.15; T 3.53; R 2.73; V 2.19; I 2.67; L 2.61; K 2.7
